From patent US10363214B2, “Method for treating atrophic age related macular degeneration” (Allergan, Inc., priority 2008, dated 2019)

Tests used:
[1] = 1.25 to 2.5 mg aqueous bevacizumab into the vitreous cavity; animal and human studies; cited from earlier work
ARPE-19 cells = experiment: ARPE-19 cell viability (MTT) assay with polysorbate 80; format: cell-based
Procedure: An experiment was carried out to examine the toxicity of a polysorbate retinal penetrant enhancer to retinal pigment epithelial (“RPE”) cells. Thus, ARPE-19 cells (see Dunn K. et al., ARPE-19, a human retinal pigment epithelial cell line with differentiated properties, Exp Eye Res. 1996 Feb;62(2):155-69) were incubated in vitro in concentrations of polysorbate 80 ranging from 0% to 0.10% w/w and a cell viability assay was performed.
The protocol for this in vitro experiment was as follows: ARPE-19 cells (passage 11 to 23) were seeded the day prior to experimentation in 24 well-plates at 125.000 cells/well in DMEM:F12 medium supplemented with 10% FBS. Time course and dose response were simultaneously performed on ARPE-19 cells. Parameters of incubating solutions such as pH, osmolarity were measured for every concentration. Times of incubation were 24 h, 48 h, 72 h. One negative (non-treated) and one positive control (5 mM H2O2) were included. Non-treated condition was cell culture medium supplemented with serum. 5 mM H2O2 was prepared from 3% H2O2 stock solution (875 mM). Concentrations applied to cells were determined considering several parameters, such as • (a) commonly used concentration in formulation. • (b) limiting concentration to compound solubility. • (c) limiting concentration to applicable viscosity, osmolarity and pH values. In a first approach, the concentrations covered a wide range (Exp.1). After preliminary results, a second set of experiments (Exp.2 to 4) determined more accurately compound concentrations leading to inhibition of 50% of cell viability, based on cell viability assay and morphological aspect. […] Results from MTT assay were expressed as a percentage of cell viability calculated as follows: % cell viability=ODtest/ODcontrol×100. […] Gap concentration bringing to 50% cell viability was therefore determined. Morphological appearance was analyzed by semi-quantitative scoring ranging from 5 to 1, from normal to lethal phenotype respectively.

wet AMD eye = experiment: Monthly intravitreal injections in wet AMD eye of patient (paper case examples); format: in vivo, human
Source text: A person has age-related macular degeneration and cataracts in both eyes. […] The patient can complain of blurry vision and metamorphopsia in the right eye and examination can reveal visual acuity of 20/400 right eye, 20/32 left eye. Retinal examination can show subfoveal choroidal neovascularization (CNV) (right eye wet AMD) approximately 1 disc area in size with surrounding hemorrhage and edema in the right eye. The fellow left eye can show high-risk features for developing wet AMD such as soft, amorphic appearing drusen that included the fovea but no signs of choroidal neovascularization and can be confirmed by fluorescein angiography (left eye dry AMD).
A person can wake up with blurry vision in the left eye. They can have a history of glaucoma, s/p cataract removal with IOLs (intraocular lenses), and dry AMD in both eyes and can be taking Alphagan P eye drops. The patient's ophthalmologist can examine them and they can be diagnosed with left eye wet AMD and sent immediately to a retinal specialist. The vision can be 20/25 in the right eye and 20/200 in the left eye. Retinal examination can show dry changes in the right eye macula but high risk features such as large drusen and numerous pigmentary changes in the subfoveal region. The left eye macula can show a subfoveal CNV approximately 2 disc areas in size with surrounding macular edema and intraretinal hemorrhages. Fluorescein angiography can confirm the presence of left eye CNV predominantly classic in appearance. […] Since the patient was at high risk for developing CNV in their right eye, and the vision in the left eye may not appreciably improve over the 3 month period, they can receive an intravitrea injection into the right eye of 50 ul comprising 4.8 mg of ranibizumab incorporated into PLGA microspheres, to prophylax against the development of CNV in the right eye. Polysorbate 20 PLGA microspheres with an in vitro release rate of 5 ug/day can also be placed in the formulation to enhance retinal permeability. The microspheres can be placed in a partially cross-linked hyaluronic acid (HA) at a HA concentration of 2.1%. Such a cross-linked HA can be obtained from Allergan Medical (Irvine, Calif.) under the brand names Juvederm Ultra Plus, Juvederm 30, Captique, and Voluma.

Molecule: bevacizumab
- intraocular toxicity [1]: without significant intraocular toxicity

Molecule: polysorbate 80
- polysorbate 80 concentrations associated with declining RPE cell viability (ARPE-19 cells; ARPE-19 cells, 24, 48 and 72 h incubation, also printed as 0.6 mg/ml, FIG. 1): over 0.06%
- polysorbate 80 concentrations associated with cell viabilities of less than 50% (ARPE-19 cells; ARPE-19 cells, 24, 48 and 72 h incubation, also printed as 0.9 mg/ml, FIG. 1): > 0.09%
- total maximum weight of polysorbate in the vitreous at one time (ARPE-19 cells; assuming a vitreous volume of 4 ml in a human eye): ≤ 3.6 mg

B1: ranibizumab (antibody, chains of the INN, looked up, V domains shown)
VH: EVQLVESGGGLVQPGGSLRLSCAASGYDFTHYGMNWVRQAPGKGLEWVGWINTYTGEPTYAADFKRRFTFSLDTSKSTAYLQMNSLRAEDTAVYYCAKYPYYYGTSHWYFDVWGQGTLVTVSS
VL: DIQLTQSPSSLSASVGDRVTITCSASQDISNYLNWYQQKPGKAPKVLIYFTSSLHSGVPSRFSGSGSGTDFTLTISSLQPEDFATYYCQQYSTVPWTFGQGTKVEIK
modifications: Fab
- edema and hemorrhage, right wet AMD eye (wet AMD eye; Example 1, within 4 months): resolution of the edema and hemorrhage
- visual acuity, right wet AMD eye (wet AMD eye; Example 1, within 4 months, baseline 20/400): 20/125
- left eye visual acuity (wet AMD eye) (wet AMD eye; Example 3, 3 month period, baseline 20/200): 20/100
- retinal edema, left wet AMD eye (wet AMD eye; Example 3, over a 3 month period): resolution of the retinal edema
